Two molecules from article PMC3469519 (Molecular Biology of the Cell, 2012) can be followed below.

Common to all, as to experiment: pull-down
For assay [1], the target named is T1, full-length 6His-Bnr1 (S. cerevisiae, UniProt P40450 1-1375).
A further assay addresses T2, 6His-Bnr1-758 (Bnr1-N) (S. cerevisiae, UniProt P40450 1-758).
T2 sequence (looked up): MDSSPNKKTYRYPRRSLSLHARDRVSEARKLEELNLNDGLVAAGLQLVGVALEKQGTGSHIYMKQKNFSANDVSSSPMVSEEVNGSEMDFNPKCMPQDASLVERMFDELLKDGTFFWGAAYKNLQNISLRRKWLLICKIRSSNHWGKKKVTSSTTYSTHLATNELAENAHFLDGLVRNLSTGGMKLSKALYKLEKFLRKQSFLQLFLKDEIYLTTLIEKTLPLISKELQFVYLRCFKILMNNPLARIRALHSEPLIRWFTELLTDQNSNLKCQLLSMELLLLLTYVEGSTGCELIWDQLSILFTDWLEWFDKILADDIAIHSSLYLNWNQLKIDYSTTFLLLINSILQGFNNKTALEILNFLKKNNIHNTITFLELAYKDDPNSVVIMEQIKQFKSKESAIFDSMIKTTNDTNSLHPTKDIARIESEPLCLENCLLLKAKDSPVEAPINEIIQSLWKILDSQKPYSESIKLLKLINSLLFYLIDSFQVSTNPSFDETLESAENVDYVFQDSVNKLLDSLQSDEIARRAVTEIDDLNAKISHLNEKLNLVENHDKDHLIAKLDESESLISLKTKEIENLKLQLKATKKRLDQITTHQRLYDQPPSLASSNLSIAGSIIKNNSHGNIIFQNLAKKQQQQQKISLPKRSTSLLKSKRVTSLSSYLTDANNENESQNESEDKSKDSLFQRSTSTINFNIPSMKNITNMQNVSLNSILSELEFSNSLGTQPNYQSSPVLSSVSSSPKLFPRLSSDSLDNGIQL

Assay [2] deals with T1, full-length 6His-Bnr1. The source holds these as a separate data set.

Like-named read-outs stand apart in the source and are kept apart here.

B1: pCAL-n-FLAG-Gin4-C (amino acids 540–1142) (domain or fragment, S. cerevisiae, UniProt Q12263 540-1142, looked up)
chain: SSNFATLIDEIFEYEKYEQIRKEKEELERKVREAKAREELERRRRKQEEKERARKLLEKEDLKRKQEELKKQIEIDISDLEQELSKHKEEKLDGNIRSISAPMENEEKNINHLEVDIDNILRRRNFSLQTRPVSRLDPGIMFSSPTEEVSPVEPKRTENERLTTEKKILETIRRSKFLGSSFNIDKELKLSKMEYPSIIAPQRLSEERVVSDSNDGYESLILPKDGNGVSQLKDSTATTAPVSDGRLRKISEIRVPQFTRKSRHFSESNKRLSVLSMYSTKESFTNLVDILKNGNLDVNNQQSQRIPTPRSADDSEFLFETVNEEAEYTGNSSNDERLYDVGDSTIKDKSALKLNFADRFNGSNEAKQTDNLHLPILPPLNGDNELRKQNSQEGDQAHPKIKSMIPESGSSSHTEKEEENEEKEEKKPEQHKQEEDQEKREKVVDDMEPPLNKSVQKIREKNAGSQAKDHSKDHLKEHKQDKNTAIGNGSFFRKFSKSSDKTMELYAKISAKQLFNGLEKLLRGWTQYGLKNIKSHPNNLTLTGKLSSDNIFSLRSTLFEVNIYPRGKMSVVQFKKVSGSFKAVKKLVNEVENVLNKEGVLQK
Turning to B1, the binding result in the assay with full-length 6His-Bnr1 [1] and in the assay with 6His-Bnr1-758 (Bnr1-N) was “binds” each time.

B2: full-length GST-Gin4 (enzyme, S. cerevisiae, UniProt Q12263 1-1142, looked up)
chain: MAINGNSIPAIKDNTIGPWKLGETLGLGSTGKVQLARNGSTGQEAAVKVISKAVFNTGNVSGTSIVGSTTPDALPYGIEREIIIMKLLNHPNVLRLYDVWETNTDLYLVLEYAEKGELFNLLVERGPLPEHEAIRFFRQIIIGVSYCHALGIVHRDLKPENLLLDHKYNIKIADFGMAALETEGKLLETSCGSPHYAAPEIVSGIPYQGFASDVWSCGVILFALLTGRLPFDEEDGNIRTLLLKVQKGEFEMPSDDEISREAQDLIRKILTVDPERRIKTRDILKHPLLQKYPSIRDSKSIRGLPREDTYLTPLSESNSSIDATILQNLVILWHGRDPEGIKEKLREPGANAEKTLYALLYRFKCDTQKELIKQQQVKKRQSISSVSVSPSKKVSTTPQRRRNRESLISVTSSRKKPISFNKFTASSASSSNLTTPGSSKRLSKNFSSKKKLSTIVNQSSPTPASRNKRASVINVEKNQKRASIFSTTKKNKRSSRSIKRMSLIPSMKRESVTTKLMSTYAKLAEDDDWEYIEKETKRTSSNFATLIDEIFEYEKYEQIRKEKEELERKVREAKAREELERRRRKQEEKERARKLLEKEDLKRKQEELKKQIEIDISDLEQELSKHKEEKLDGNIRSISAPMENEEKNINHLEVDIDNILRRRNFSLQTRPVSRLDPGIMFSSPTEEVSPVEPKRTENERLTTEKKILETIRRSKFLGSSFNIDKELKLSKMEYPSIIAPQRLSEERVVSDSNDGYESLILPKDGNGVSQLKDSTATTAPVSDGRLRKISEIRVPQFTRKSRHFSESNKRLSVLSMYSTKESFTNLVDILKNGNLDVNNQQSQRIPTPRSADDSEFLFETVNEEAEYTGNSSNDERLYDVGDSTIKDKSALKLNFADRFNGSNEAKQTDNLHLPILPPLNGDNELRKQNSQEGDQAHPKIKSMIPESGSSSHTEKEEENEEKEEKKPEQHKQEEDQEKREKVVDDMEPPLNKSVQKIREKNAGSQAKDHSKDHLKEHKQDKNTAIGNGSFFRKFSKSSDKTMELYAKISAKQLFNGLEKLLRGWTQYGLKNIKSHPNNLTLTGKLSSDNIFSLRSTLFEVNIYPRGKMSVVQFKKVSGSFKAVKKLVNEVENVLNKEGVLQK
As for B2, the binding result with full-length 6His-Bnr1 [2] is given as “binds”.
